Patent publication US20190091332A1 (published 2019)

T1: human LAG3-huFc (human, UniProt P18627 23-450, limits assumed)
T1 construct: also called human LAG3-Fc; huLAG3-huFc; not shown: human Fc (huFc)
T1 sequence: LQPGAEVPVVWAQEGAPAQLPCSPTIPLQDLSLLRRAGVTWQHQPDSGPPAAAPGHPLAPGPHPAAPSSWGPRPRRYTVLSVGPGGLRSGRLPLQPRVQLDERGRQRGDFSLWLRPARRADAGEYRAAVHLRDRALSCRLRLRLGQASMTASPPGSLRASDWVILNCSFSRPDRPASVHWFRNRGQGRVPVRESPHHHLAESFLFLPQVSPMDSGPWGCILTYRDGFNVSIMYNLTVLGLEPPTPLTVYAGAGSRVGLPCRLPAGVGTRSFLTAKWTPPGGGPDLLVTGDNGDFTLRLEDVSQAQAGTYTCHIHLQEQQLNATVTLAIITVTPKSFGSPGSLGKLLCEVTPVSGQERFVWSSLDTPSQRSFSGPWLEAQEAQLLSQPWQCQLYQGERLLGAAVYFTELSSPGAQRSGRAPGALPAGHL


Legend:
human LAG3-huFc [1] = molecular target: T1, human LAG3-huFc; experiment: flow cytometry competition: antibody pre-incubated with human LAG3-huFc, its binding to Daudi cells (MHC class II) read
Procedure: (§1) Mouse anti-human LAG3 clones were tested for their ability to block hLAG3 interaction with human MHC Class II. Daudi cells (ATCC #CCL-213) were used as a cell line positive for human MHC class II expression. Daudi cells were blocked with 10 ug/ml of goat IgG in HBSS and 2% BCS on ice for 30 minutes and 0.5×10⁶ cells/sample were aliquoted into a 96-well V-bottom plate and blocking buffer removed. […] Cells were pelleted by centrifugation at 1200 rpm and washed twice with HBSS/2% BCS. […] Cells were washed twice as described above, resuspended in HBSS/2% BCS and read on the FACSCalibur.

human LAG3-huFc [2] = molecular target: T1, human LAG3-huFc; experiment: as above; remark: listed apart in the source
Procedure: as §1

human LAG3-huFc [3] = molecular target: T1, human LAG3-huFc; experiment: flow cytometry competition: antibody pre-incubated with biotinylated human LAG3-huFc, its binding to Daudi cells (MHC class II) read with streptavidin-PE
Procedure: as §1, with “anti-human LAG3 and humanized anti-LAG3 clones were” for “anti-human LAG3 clones were”

Row | IC50 (human LAG3-huFc [1]) [nM] | IC50 (human LAG3-huFc [2]) [nM] | IC50 (human LAG3-huFc [3]) [nM] | Binder
1 | 2.8 | 2.8 |  | LB148.19E8.G1.1A1 (antibody, V domains shown, also called Lag3 clone 19E8) VH: QIRLQQSGPELVKPGASVKISCKASGSSFTDYYINWVKQKPGQGLEWIGWIYPGSGNSIYNENFKAKATLTVDTSSSTAYMHLSSLTSEDTAVYFCAREADYDDALDYWGQGTSVTVSS VL: HILLTQSPAILSVSPGERVSFSCRASQSIGTSIHWYQQRTNGSPRLLIKYASESISGIPSRFSGSGSGTDFTLSINSVESEDIADYYCQQSNSWPTYTFGGGTKLEIK
2 | 2.1 | 2.1 |  | LB145.22D2.E1.1D1 (antibody, V domains shown, also called mouse anti-human LAG3 clone 22D2; Lag3 clone 22D2) VH: EVLLLQSGPELVKPGTSVKIPCKASGYTFTDYNVDWVKQRHGKGLEWIGDINPNNGGTIYSQKFKGKATLTVDKSSSTAFMELRSLTSEDTAVYFCARNYRWFGAMDHWGQGTSVTVSS VL: DIVLTQSPASLAVSPGQRATISCKASQSLDYEGDSDMNWYQQKPGQPPRLLISGASNLESGIPARFSGSGSGTDFTVNIHPVEEEDAATYYCQQSTEDPRTFGGGTKLEIK
3 |  |  | 2.5 | 22D2 Chimera ([LAG3_H] mAb (LB145.22D2.E1.D1 (VH0/VL0) Geneart) IgG4 S228P/kappa (PX)) (antibody, V domains shown, Chimeric antibody: 22D2 VH0/VL0 variable domains on human IgG4 S228P/kappa; also called Chimeric 22D2; Anti-hLAG3 clone 22D2 (chimeric antibody)) VH: EVLLLQSGPELVKPGTSVKIPCKASGYTFTDYNVDWVKQRHGKGLEWIGDINPNNGGTIYSQKFKGKATLTVDKSSSTAFMELRSLTSEDTAVYFCARNYRWFGAMDHWGQGTSVTVSS VL: DIVLTQSPASLAVSPGQRATISCKASQSLDYEGDSDMNWYQQKPGQPPRLLISGASNLESGIPARFSGSGSGTDFTVNIHPVEEEDAATYYCQQSTEDPRTFGGGTKLEIK
4 |  |  | 2.6 | Hu22D2 VH6/VL3 (Ab 5) (antibody, human IgG4 S228P, kappa, V domains shown, Humanized 22D2, IgG4 S228P/kappa; also called 45AGX light chain / 57AHH heavy chain IgG4 S228P) VH: QMQLVQSGPEVKKPGTSVKVSCKASGYTFTDYNVDWVRQARGQRLEWIGDINPNNGGTIYAQKFQERVTITVDKSTSTAYMELSSLRSEDTAVYYCARNYRWFGAMDHWGQGTTVTVSS VL: DIVMTQTPLSLSVTPGQPASISCKASQSLDYEGDSDMNWYLQKPGQPPQLLIYGASNLESGVPDRFSGSGSGTDFTLKISRVEAEDVGVYYCQQSTEDPRTFGGGTKVEIKR
5 |  |  | 2.4 | Hu22D2 VH6/VL3 N55D (Ab 6) (antibody, human IgG4 S228P, kappa, V domains shown, Humanized 22D2, IgG4 S228P/kappa; also called Hu2D2; 45AGX light chain / 73AHD heavy chain IgG4 S228P) VH: QMQLVQSGPEVKKPGTSVKVSCKASGYTFTDYNVDWVRQARGQRLEWIGDINPNDGGTIYAQKFQERVTITVDKSTSTAYMELSSLRSEDTAVYYCARNYRWFGAMDHWGQGTTVTVSS VL: DIVMTQTPLSLSVTPGQPASISCKASQSLDYEGDSDMNWYLQKPGQPPQLLIYGASNLESGVPDRFSGSGSGTDFTLKISRVEAEDVGVYYCQQSTEDPRTFGGGTKVEIKR
6 |  |  | 2.5 | Hu22D2 VH6/VL3 N55Q (Ab 8) (antibody, human IgG4 S228P, kappa, V domains shown, Humanized 22D2, IgG4 S228P/kappa; also called 45AGX light chain / 80AHG heavy chain IgG4 S228P) VH: QMQLVQSGPEVKKPGTSVKVSCKASGYTFTDYNVDWVRQARGQRLEWIGDINPNQGGTIYAQKFQERVTITVDKSTSTAYMELSSLRSEDTAVYYCARNYRWFGAMDHWGQGTTVTVSS VL: DIVMTQTPLSLSVTPGQPASISCKASQSLDYEGDSDMNWYLQKPGQPPQLLIYGASNLESGVPDRFSGSGSGTDFTLKISRVEAEDVGVYYCQQSTEDPRTFGGGTKVEIKR
7 |  |  | 2.1 | Hu22D2 VH6/VL3 N55S (Ab 7) (antibody, human IgG4 S228P, kappa, V domains shown, Humanized 22D2, IgG4 S228P/kappa; also called 45AGX light chain / 21AHG heavy chain IgG4 S228P) VH: QMQLVQSGPEVKKPGTSVKVSCKASGYTFTDYNVDWVRQARGQRLEWIGDINPNSGGTIYAQKFQERVTITVDKSTSTAYMELSSLRSEDTAVYYCARNYRWFGAMDHWGQGTTVTVSS VL: DIVMTQTPLSLSVTPGQPASISCKASQSLDYEGDSDMNWYLQKPGQPPQLLIYGASNLESGVPDRFSGSGSGTDFTLKISRVEAEDVGVYYCQQSTEDPRTFGGGTKVEIKR
8 | 2 | 2 |  | LB148.11C9.1C1 (antibody, V domains shown, also called Lag3 clone 11C9; mouse x [LAG3_H] mAb (LB148.11C9.1C1) IgG1/kappa (HY)) VH: QVQLQQPGAELVMPGASAKMSCKASGYTLTDYWMHWVKQRPGQGLEWIGAIDISDSYSSYNQKFKGKATLTVDESSSTAYMQLTSLTSEDSAVYYCARSPFYNSRGGNYFDYWGQGTTLTVSS VL: DIQMTQTTSSLSASLGDRVTISCRASQDISNYLNWYQQKPDGTVKLLIYYTSRLHSGVPSRFSGSGSGTDYSLTISNLEQEDIATYFCQQGDTLPPWTFGGGTKLEIK
9 | 1.9 | 1.9 |  | LB148.4A10.1H1 (antibody, V domains shown, also called Lag3 clone 4A10; mouse x [LAG3_H] mAb (LB148.4A10.1H1) IgG2a/kappa (HY)) VH: EVQLLQSGAELVRSGASVKLSCTASGFNIEDYYMHWMKQRPEQGLEWIGWIDPVNGDTEYAPKFQGKATMTADTSSNTAYLHLNSLTSEDTAVYYCNFYDGYLFAFWGQGTLVTVSA VL: DIVLTQAAPSVPVTPGESVSISCRSSKSLLHSDGNTYLYWLLQRPGQSPQLLIYRMSNLASGVPDRFSGSGSGTVFTLRISRLEAEDVGIYYCMQHLEYPFTFGGGTKLEIK
